In patent US20030092037A1, “Elk1 phosphorylation related gene” (priority 2001, published 2003):

B1: 110 (protein, listed as Homo sapiens)
chain: MERPLCSHLCSCLAMLALLSPLSLAQYDSWPHYPEYFQQPAPEYHQPQAPANVAKIQLRLAGQKRKHSEGRVEVYYDGQWGTVCDDDFSIHAAHVVCRELGYVEAKSWTASSSYGKGEGPIWLDNLHCTGNEATLAACTSNGWGVTDCKHTEDVGVVCSDKRIPGFKFDNSLINQIENLNIQVEDIRIRAILSTYRKRTPVMEGYVEVKEGKTWKQICDKHWTAKNSRVVCGMFGFPGERTYNTKVYKMFASRRKQRYWPFSMDCTGTEAHISSCKLGPQVSLDPMKNVTCENGLPAVVSCVPGQVFSPDGPSRFRKAYKPEQPLVRLRGGAYIGEGRVEVLKNGEWGTVCDDKWDLVSASVVCRELGFGSAKEAVTGSRLGQGIGPIHLNEIQCTGNEKSIIDCKFNAESQGCNHEEDAGVRCNTPAMGLQKKLRLNGGRNPYEGRVEVLVERNGSLVWGMVCGQNWGIVEAMVVCRQLGLGFASNAFQETWYWHGDVNSNKVVMSGVKCSGTELSLAHCRHDGEDVACPQGGVQYGAGVACSETAPDLVLNAEMVQQTTYLEDRPMFMLQCAMEENCLSASAAQTDPTTGYRRLLRFSSQIHNNGQSDFRPKNGRHAWIWHDCHRHYHSMEVFTHYDLLNLNGTKVAEGHKASFCLEDTECEGDIQKNYECANFGDQGITMGCWDMYRHDIDCQWVDITDVPPGDYLFQVVINPNFEVAESDYSNNIMKCRSRYDGHRIWMYNCHIGGSFSEETEKKFEHFSGLLNNQLSPQ
B2: 116 (protein, listed as Mus musculus)
chain: MSSAKSARYDRFSGGPANLPSSDSSGTRMETTFGPTFSTVTTITKAADGTGTYKQHRRTPSSSSTLAYSPRDEEDGMEPLVFAEQPSVKLCCQLCCSVFKDPVITTCGHTFCRRCALKSEKCPVDNAKLTVVVNNIAVAEQIGELFIHCRHGCHAAGTGKPGVFEVDPRGCPFTIKLSARKDHESSCDYRPVRCPNNPSCPPLLKMNLEAHLKECEHIKCPHSKYGCTFIGNQDTYETHLETCRFEGLKEFLQQSDDRFHEMHVALAQKDQEIAFLRSMLGKLSEKINQLEKSLELKFDVLDENQSKLSEDLMEFRRDASMLNDELSHINARLNMGILGSYDPQQIFKCKGTFVGHQGPVWCLCVYSMGDLLFSGSSDKTIKVWDTCTTYKCQKTLEGHDGIVLALCIQGCKLYSGSADCTIIVWDIQNLQKVNTIRAHDNPVCTLVSSHNMLFSGSLKAIKVWDIVGTELKLKKELTGLNHWVRALVAAQSYLYSGSYQTIKIWDIRTLDCIHVLQTSGGSVYSIAVTNHHIVCGTYENLIHVWDIESKEQVRTLTGHVGTVYALAVISTPDQTKVFSASYDRSLRVWSMDNMICTQTLLRHQGSVTALAVSRGRLFSGAVDSTVKVWTC
B3: 112 (protein, listed as Homo sapiens)
chain: METTFGPAFSAVTTITKADGTSTYKQHCRTPSSSSTLAYSPRDEEDSMPPISTPRRSDSAISVRSLHSESSMSLRSTFSLPEEEEEPEPLVFAEQPSVKLCCQLCCSVFKDPVITTCGHTFCRRCALKSEKCPVDNVKLTVVVNNIAVAEQIGELFIHCRHGCRVAGSGKPPIFEVDPRGCPFTIKLSARKDHEGSCDYRPVRCPNNPSCPPLLRMNLEAHLKECEHIKCPHSKYGCTFIGNQDTYETHLETCRFEGLKEFLQQTDDRFHEMHVALAQKDQEIAFLRSMLGKLSEKIDQLEKSLELKFDVLDENQSKLSEDLMEFRRDASMLNDELSHINARLNMGILGSYDPQQIFKCKGTFVGHQGPVWCLCVYSMGDLLFSGSSDKTIKVWDTCTTYKCQKTLEGHDGIVLALCIQGCKLYSGSADCTIIVWDIQNLQKVNTIRAHDNPVCTLVSSHNVLFSGSLKAIKVWDIVGTELKLKKELTGLNHWVRALVAAQSYLYSGSYQTIKIWDIRTLDCIHVLQTSGGSVYSIAVTNHHIVCGTYENLIHVWDIESKEQVRTLTGHVGTVYALAVISTPDQTKVFSASYDRSLRVWSMDNMICTQTLLRHQGSVTALAVSRGRLFSGAVDSTVKVWTC
B4: 52 (protein, listed as Homo sapiens)
chain: MAASRLELNLVRLLSRCEAMAAEKRDPDEWRLEKYVGALEDMLQALKVHASKPASEVINEYSWKVDFLKGMLQAEKLTSSSEKALANQFLAPGRVPTTARERVPATKTVHLQSRARYTSEMRSELLGTDSAEPEMDVRKRTGVAGSQPVSEKQSAAELDLVLQRHQNLQEKLAEEMLGLARSLKTNTLAAQSVIKKDNQTLSHSLKMADQNLEKLKTESERLEQHTQKSVNWLLWAMLIIVCFIFISMILFIRIMPKLK
B5: 50 (protein, listed as Homo sapiens)
chain: MAKERRRAVLELLQRPGNARCADCGAPDPDWASYTLGVFICLSCSGIHRNIPQVSKVKSVRLDAWEEAQVEFMASHGNDAARARFESKVPSFYYRPTPSDCQLLREQWIRAKYERQEFIYPEKQEPYSAGYREGFLWKRGRDNGQFLSRKFVLTEREGALKYFNRNDAKEPKAVMKIEHLNATFQPAKIGHPHGLQVTYLKDNSTRNIFIYHEDGKEIVDWFNALRAARFHYLQVAFPGASDADLVPKLSRNYLKEGYMEKTGPKQTEGFRKRWFTMDDRRLMYFKDPLDAFARGEVFIGSKESGYTVLHGFPPSTQGHHWPHGITIVTPDRKFLFACETESDQREWVAAFQKAVDRPMLPQEYAVEAHFKHKP
B6: 44 (protein, listed as Homo sapiens)
chain: MEDEEVAESWEEAADSGEIDRRLEKKLKITQKESRKSKSPPKVPIVIQDDSLPAGPPPQIRILKRPTSNGVVSSPNSTSRPTLPVKSLAQREAEYAEARKRILGSASPEEEQEKPILDRPTRISQPEDSRQPNNVIRQPLGPDGSQGFKQRR
B7: 68 (protein, listed as Homo sapiens)
chain: MLKEEQEVAMLGVPHNPAPPMSTVIHIRSETSVPDHVVWSLFNTLSMNTCCLGFIAFAYSVKSRDRKMVGDVTGAQAYASTAKCLNIWALILGIFMTILLIIIPVLVVQAQR
B8: 60 (protein, listed as Homo sapiens)
chain: MLGSGFKAERLRVNLRLVINRLKLLEKKKTELAQKARKEIADYLAAGKDERARIRVEHIIREDYLVEAMEILELYCDLLLARFGLIQSMKELDSGLAESVSTLIWAAPRLQSEVAELKIVADQLCAKYSKEYGKLCRTNQIGTVNDRLMHKLSVEAPPKILVERYLIEIAKNYNVPYEPDSVVMVPPQECERMGEALWEDHQRWLDSGREHVVKHPSLVLRFQT
B9: 4 (protein, listed as Homo sapiens)
chain: MSHEKSFLVSGDNYPPPNPGYPGGPQPPMPPYAQPPYPGAPYPQPPFQPSPYGQPGYPHGPSPYPQGGYPQGPYPQGGYPQGPYPQEGYPQGPYPQGGYPQGPYPQSPFPPNPYGQPQVFPGQDPDSPQHGNYQEEGPPSYYDNQDFPATNWDDKSIRQAFIRKVFLVLTLQLSVTLSTVSVFTFVAEVKGFVRENVWTYYVSYAVFFISLIVLSCCGDFRRKHPWNLVALSVLTASLSYMVGMIASFYNTEAVIMAVGITTAVCFTVVIFSMQTRYDFTSCMGVLLVSMVVLFIFAILCIFIRNRILEIVYASLGALLFTCFLAVDTQLLLGNKQLSLSPEEYVFAALNLYTDIINIFLYILTIIGRAKE

System: MAP kinase cascade activation
Experiment: Reporter activity reflecting MAP kinase cascade activation, corrected using an internal control (Elk1-GAL4 luciferase reporter in 293-EBNA cells)
Assay type: cell-based, human
Settings: 12.5 ng/well expression plasmid; 293-EBNA cells; 24 hours
Protocol: (in the presence of 5% CO2). […] The method used for introduction was in accordance with the attached protocol. After culturing for 24 hours at 37° C., reporter activity (firefly luciferase acitivity), which reflects MAP kinase cascade activation, and reporter activity being the internal control (sea pansy luciferase) were measured using Picagene Dual (purchased from Toyo Ink Manufacturing) in accordance with the manufacturer's instructions.
Luciferase activity was measured with Perkin Elmer's Wallac ARVOTMST 1420 MULTILABEL COUNTER.
Reporter activity where an expression plasmid comprising the above gene was introduced, which reflects MAP kinase cascade activation corrected with internal control reporter activity, is shown in Table 1, which is expressed as a factor of the same reporter activity where a null vector was introduced (S/B value).

Molecule	Reporter activity corrected with internal control, as a factor of null vector (S/B value)
B1	2.3
B2	11.9
B3	7.6

Same assay, conditions: 25 ng/well expression plasmid; 293-EBNA cells; 24 hours

Molecule	Reporter activity corrected with internal control, as a factor of null vector (S/B value)
B4	2.3
B1	3.4
B5	2.3
B2	17.3
B6	9.1
B3	2.2
B7	2.3
B8	2.0
B9	2.1

Same assay, conditions: 50 ng/well expression plasmid; 293-EBNA cells; 24 hours

Molecule	Reporter activity corrected with internal control, as a factor of null vector (S/B value)
B4	3.6
B1	4.7
B5	4.3
B2	19.9
B6	55.4
B3	3.1
B7	4.0
B8	2.6
B9	4.1

Same assay, conditions: 100 ng/well expression plasmid; 293-EBNA cells; 24 hours

Molecule	Reporter activity corrected with internal control, as a factor of null vector (S/B value)
B4	5.4
B5	3.8
B6	64.5
B7	7.3
B8	4.2
B9	4.5

Same assay, conditions: plasmid 12.5 ng, 25 ng, 50 ng and 100 ng

Molecule	Dependence of corrected reporter activity on amount of expression plasmid
B4	increases that were dependent on the amount of expression plasmid
B1	increases that were dependent on the amount of expression plasmid
B5	increases that were dependent on the amount of expression plasmid
B2	increases that were dependent on the amount of expression plasmid
B6	increases that were dependent on the amount of expression plasmid
B3	increases that were dependent on the amount of expression plasmid
B7	increases that were dependent on the amount of expression plasmid
B8	increases that were dependent on the amount of expression plasmid
B9	increases that were dependent on the amount of expression plasmid
